Measured values as given in patent US20200131227A1, “POLYPEPTIDE WITH TUMOUR BINDING ACTIVITY” (RUPRECHT-KARLS-UNIVERSITÄT HEIDELBERG, priority 2017, published 2020).
Where a SMILES comes first, the peptide text is derived from it. Bridges are numbered along the chain shown (N, C = ends). The star is where a group is joined. DOTA = O=C(O)CN1CCN(CC(=O)O)CCN(CC(=O)*)CCN(CC(=O)O)CC1

Legend:
[1] = test system: carcinoma cell lines; assay: In vitro binding of radiolabeled peptides to several carcinoma cell lines; assay type: cell-based, human
Outline: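 Cells seeded 48 h were incubated with ^125I-labeled peptide in serum-free medium for 10 or 60 min, alone or with unlabeled peptide (10^−4 to 10^−11 M); HNO97 kinetics, efflux and internalization (37° C and 4° C, acid strip) used ^177Lu-DOTA-SFITGv6. Gamma counting gave % applied dose per 10^6 cells.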

[2] = test system: HNO97 cells; assay type: binding, human; details: 48 h
Method: For binding studies, 2.5×10^5 to 4×10^5 cells were seeded in 6-well plates and cultivated for 48 hours. Cells were incubated for 60 min with 1 mL serum-free medium containing the ^125I-labeled peptide (see above). For competition experiments, cells were simultaneously exposed to unlabeled (10^-4 M to 10^-10 M) and ^125I-labeled peptides. After three washing steps with PBS (pH 7.4) the cells were lysed with 0.5 mL of 0.3 M NaOH. Experiments concerning the internalization, kinetics and efflux were additionally performed with ^177Lu-DOTA-SFITGv6. To evaluate kinetics and efflux HNO97 cells were incubated for different time intervals (10 min to 480 min) and 60 min, respectively, with ^177Lu-DOTA-SFITGv6 and lysed as described. To continue with the efflux experiment radioactive medium was replaced by non-radioactive medium and cells were incubated again for 60 to 240 min before measuring radioactivity of the cell lysates and the medium. For internalization experiments the cells were exposed to ^177Lu-DOTA-SFITGv6 for different time intervals (10 to 240 min) at 37° C. and 4° C. After three washing steps with PBS the cells were incubated with 1 mL of glycine-HCl 50 mmol/L in PBS (pH 2.8) for 10 min at RT to remove the surface bound activity. Then, cells were washed with 3 mL of ice-cold PBS and lysed as described. Radioactivity was determined in a gamma counter and calculated as percentage of the applied dose per 1×10^6 cells. Experiments were performed three times, and three repetitions per independent experiment were acquired.

[3] = Biodistribution, HNO97 xenografts; details: Balb/c nude, mouse, iv, 1 MBq, total radioactivity
[4] = test system: HNO223 cells; assay: In vitro binding on HNO223 cells; assay type: cell-based, human; details: Example 2, 10 min to 480 min (FIG. 16)
Method: For binding studies, 2.5×10^5 to 4×10^5 cells were seeded in 6-well plates and cultivated for 48 hours. Cells were incubated for 60 min with 1 mL serum-free medium containing the ^125I-labeled peptide (see above). For competition experiments, cells were simultaneously exposed to unlabeled (10^-4 M to 10^-10 M) and ^125I-labeled peptides. After three washing steps with PBS (pH 7.4) the cells were lysed with 0.5 mL of 0.3 M NaOH. Experiments concerning the internalization, kinetics and efflux were additionally performed with ^177Lu-DOTA-SFITGv6. […] To continue with the efflux experiment radioactive medium was replaced by non-radioactive medium and cells were incubated again for 60 to 240 min before measuring radioactivity of the cell lysates and the medium. […] Radioactivity was determined in a gamma counter and calculated as percentage of the applied dose per 1×10^6 cells. […]
For the assessment of the peptide binding capacity in vitro, 2.5-4×10^5 cells were seeded into 6-well plates and cultivated for 48 h. ^125I-labeled peptide resuspended in 1 mL serum-free medium was added and incubated for either 10 min or 60 min with or without different concentrations of unlabeled peptide (10^−4-10^−11 M). […] The internalization was assessed after exposure of the cells to ^177Lu-DOTA-labeled peptides for 10, 30, 60, 120, and 240 min at 37° C. […]

| Structure (SMILES) | binding after substitution of lysine (K) to leucine (L) in FRGDKMQL ([1]; HNO97 and UM-UC-5 cells, ^125I-labeled, 60 min, versus SFPF-10) | IC50 [2] [nM] | tissue uptake ([3]; in vivo, activity in the blood) [%ID/g] | tissue uptake ([3]; in vivo, uptake in the kidneys, hardly any clearance) [%ID/g] | tissue uptake at 0.5 h [3] [%ID/g] | tissue uptake at 6 h [3] [%ID/g] | binding/internalization late in efflux experiment ([1]; after 240 min (FIG. 17C)) | maximum binding capacity of ^177Lu-DOTA-labeled peptide (kinetics) [4] [%] | tissue uptake at 1 h ([3]; in vivo) [%ID/g] | tissue uptake at 6 h ([3]; in vivo) [%ID/g] |
| --- | --- | --- | --- | --- | --- | --- | --- | --- | --- | --- |
| CSCC[C@@H]1NC(=O)[C@H](CC(C)C)NC(=O)[C@H](CC(=O)O)NC(=O)CNC(=O)[C@H](CCCNC(=N)N)NC(=O)[C@H](Cc2ccccc2)NC(=O)[C@H]([C@@H](C)O)NC(=O)[C@@H](NC(=O)[C@H](CCCNC(=N)N)NC(=O)CN)CSSC[C@@H](C(=O)N[C@@H](Cc2ccc(O)cc2)C(=O)N2CCC[C@H]2C(=O)N[C@@H](CC(=O)O)C(=O)O)NC(=O)[C@H](CC(C)C)NC(=O)[C@H](CCC(N)=O)NC1=O [SFITGv6, NH2-G-R-C1-T-F-R-G-D-L-M-Q-L-C1-Y-P-D-COOH] (H-GRCTFRGDLMQLCYPD-OH; disulfide 3-13) | substantially increased the binding | 16.1 | < 1 | ~42 | > 6 | 2.4 |  |  |  |  |
| CC(C)C[C@@H]1NC(=O)[C@H](CC(=O)O)NC(=O)CNC(=O)[C@H](CCCNC(=N)N)NC(=O)CNC(=O)[C@H]([C@@H](C)O)NC(=O)[C@@H](NC(=O)[C@H](CCCNC(=N)N)NC(=O)CNC(=O)CN2CCN(CC(=O)O)CCN(CC(=O)O)CCN(CC(=O)O)CC2)CSSC[C@@H](C(=O)N[C@@H](Cc2ccc(O)cc2)C(=O)N2CCC[C@H]2C(=O)N[C@@H](CC(=O)O)C(N)=O)NC(=O)[C@H](CC(C)C)NC(=O)[C@H](CCCNC(=N)N)NC(=O)CNC1=O [^177Lu-DOTA-SFLAP3, metal not drawn] ({DOTA}-GRCTGRGDLGRLCYPD-NH2; disulfide 3-13; N-terminus and C-terminus assumed) |  |  |  |  |  |  | moderate renewed increase of binding/internalization | 9.66 | 9.1 ± 1.2 | 5.8 ± 1.44 |
